From publication PMC6336354, “A transient helix in the disordered region of dynein light intermediate chain links the motor to structurally diverse adaptors for cargo transport” (PLoS Biology, 2019)

What was measured:
Conditions in all cases: both partners purified
[1] = biological target: T1, SPDL1(2–359)::Strep-tag II (human, UniProt Q96EA4 2-359); test: SPR; Biacore 3000; His-tagged LIC1 immobilised on NTA chip (200–300 RU), Strep-tagged adaptor as analyte; HBS-P (10 mM HEPES, 150 mM NaCl, 0.005% surfactant P20, pH 7.4)
T1 construct: human Spindly (SPDL1), N-terminal region, residues 2-359; also called Spindly; source: E. coli BL21, purified (Ni-NTA, TEV cleavage, Strep-Tactin; dialysis or SEC); not shown: 6xHis::MBP, N-terminal, cleaved; Strep-tag II (after linker GSGSGR), C-terminal, kept
T1 sequence (looked up): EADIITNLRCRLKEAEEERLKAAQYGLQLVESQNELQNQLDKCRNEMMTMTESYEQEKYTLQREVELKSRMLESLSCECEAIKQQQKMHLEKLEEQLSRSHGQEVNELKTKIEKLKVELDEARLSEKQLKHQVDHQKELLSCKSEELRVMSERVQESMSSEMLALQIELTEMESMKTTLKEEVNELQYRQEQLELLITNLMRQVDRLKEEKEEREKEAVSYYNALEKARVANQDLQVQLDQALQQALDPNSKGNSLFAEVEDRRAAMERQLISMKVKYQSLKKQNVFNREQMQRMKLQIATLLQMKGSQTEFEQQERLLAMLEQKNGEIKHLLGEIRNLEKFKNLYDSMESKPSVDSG

[2] = biological target: T2, BICD2(2–422)::Strep-tag II (human, UniProt Q8TD16 2-422); test: as above
T2 construct: human bicaudal D homolog 2 (BICD2), N-terminal region, residues 2-422; also called bicaudal D homolog 2; source: E. coli BL21, purified (Ni-NTA, TEV cleavage, Strep-Tactin; dialysis or SEC); not shown: 6xHis::MBP, N-terminal, cleaved; Strep-tag II (after linker GSGSGR), C-terminal, kept

[3] = biological target: T3, HOOK3(2–239)::Strep-tag II (human, UniProt Q86VS8 2-239); test: as above
T3 construct: human Hook homolog 3 (HOOK3), residues 2-239; used for NMR, SPR and MST; also called Hook homolog 3; source: E. coli Rosetta, purified (Ni-NTA, TEV cleavage, Strep-Tactin; dialysis or SEC); not shown: 6xHis::MBP, N-terminal, cleaved; Strep-tag II (after linker GSGSGR), C-terminal, kept
T3 sequence (looked up): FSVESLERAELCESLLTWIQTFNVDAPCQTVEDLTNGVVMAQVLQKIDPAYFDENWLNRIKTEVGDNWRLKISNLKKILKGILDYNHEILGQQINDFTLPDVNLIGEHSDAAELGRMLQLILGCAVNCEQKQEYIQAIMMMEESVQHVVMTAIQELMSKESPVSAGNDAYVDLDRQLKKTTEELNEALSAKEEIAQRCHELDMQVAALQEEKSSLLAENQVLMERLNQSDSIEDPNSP

[4] = biological target: T1, SPDL1(2–359)::Strep-tag II; test: MST; 10 nM LIC1(388–523)::6xHis labelled with Red-Tris NTA dye; 16 two-fold dilutions of adaptor::Strep-tag II; 25°C
[5] = biological target: T2, BICD2(2–422)::Strep-tag II; test: as above
[6] = biological target: T3, HOOK3(2–239)::Strep-tag II; test: as above

T2 sequence (Q8TD16 2-422): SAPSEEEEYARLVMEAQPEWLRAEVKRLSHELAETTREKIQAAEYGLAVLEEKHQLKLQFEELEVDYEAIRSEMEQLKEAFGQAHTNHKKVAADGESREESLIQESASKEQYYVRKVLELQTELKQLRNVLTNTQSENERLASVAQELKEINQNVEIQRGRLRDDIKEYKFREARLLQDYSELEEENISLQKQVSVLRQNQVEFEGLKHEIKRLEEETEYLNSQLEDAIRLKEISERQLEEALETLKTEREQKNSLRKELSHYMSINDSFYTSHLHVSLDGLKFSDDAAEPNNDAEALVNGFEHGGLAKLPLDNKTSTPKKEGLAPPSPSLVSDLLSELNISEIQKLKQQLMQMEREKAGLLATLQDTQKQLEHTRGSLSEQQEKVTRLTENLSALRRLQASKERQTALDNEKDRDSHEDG

B1: LIC1(388–523)::6xHis (domain or fragment, human)
chain: WPTAAGRPVDASPRVPGGSPRTPNRSVSSNVASVSPIPAGSKKIDPNMKAGATSEGVLANFFNSLLSKKTGSPGGPGVSGGSPAGGAGGGSSGLPPSTKKSGQKPVLDVHAELDRITRKPVTVSPTTPTSPTEGEAS
notes: single N-terminal tryptophan added in the construct; 15N-labelled for the NMR titration; labelled with Red-Tris NTA dye on the His tag for MST; also called LIC1-C; LIC1-C::6xHis; source: E. coli BL21, purified (GSTrap, PreScission cleavage, second GSTrap, SEC Superdex 75); not shown: GST, N-terminal, cleaved; 6xHis (after linker GSGSG), C-terminal, kept
Kd [1]: 5.7 µM | Kd [2]: 1.07 µM | Kd [3]: 1.9 µM | Kd [4]: 13.1 µM | Kd [5]: 6 µM | Kd [6]: 4 µM
